# Measured values published in paper PMC4717258, “Sulfoxides, Analogues of L-Methionine and L-Cysteine As Pro-Drugs against Gram-Positive and Gram-Negative Bacteria” (Acta Naturae, 2015).
# T1: C. sporogenes MGL (Clostridium sporogenes, UniProt A0A7X5SZI3)
# T1 construct: gene megL; subunit 43 kDa; PLP enzyme
# T1 sequence (A0A7X5SZI3 1-400): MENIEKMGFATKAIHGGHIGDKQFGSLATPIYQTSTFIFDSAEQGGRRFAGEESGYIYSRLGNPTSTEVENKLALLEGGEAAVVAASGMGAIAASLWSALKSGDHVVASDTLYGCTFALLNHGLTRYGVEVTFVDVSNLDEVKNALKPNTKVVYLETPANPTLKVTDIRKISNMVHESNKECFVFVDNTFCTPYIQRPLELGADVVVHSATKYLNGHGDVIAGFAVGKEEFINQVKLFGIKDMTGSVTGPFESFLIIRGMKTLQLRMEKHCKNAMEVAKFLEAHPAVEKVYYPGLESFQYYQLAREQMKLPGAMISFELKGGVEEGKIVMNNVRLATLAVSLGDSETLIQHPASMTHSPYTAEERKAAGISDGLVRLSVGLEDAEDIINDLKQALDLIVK
# B1: C. sporogenes MGL (Clostridium sporogenes) (protein)
# chain: T1 sequence (A0A7X5SZI3 1-400)
# notes: subunit 43 kDa; PLP enzyme
# Key:
# C. sporogenes MGL [1] = biological target: T1, C. sporogenes MGL; test: absorption spectrum of holoenzyme, lognormal deconvolution of internal aldimine bands; type: binding; conditions: covalent internal aldimine; pH 8.0, 25 °C, working buffer without PLP
# C. sporogenes MGL [2] = biological target: T1, C. sporogenes MGL; test: inhibition of L-Met γ-elimination, NADH-coupled with D-2-hydroxyisocaproate dehydrogenase, Dixon plot; type: biochemical
# Description: inhibition of L-Met γ-elimination, NADH-coupled with D-2-hydroxyisocaproate dehydrogenase, Dixon plot on C. sporogenes MGL
# C. sporogenes MGL [3] = biological target: T1, C. sporogenes MGL; test: γ-elimination steady-state kinetics, NADH-coupled with D-2-hydroxyisocaproate dehydrogenase, […] nm; type: biochemical; conditions: pH 8.0, 100 mM potassium phosphate, 0.1 mM PLP, 1 mM DTT, 1 mM EDTA, 30 °C
# purified protein [4] = substrate: C=CC[S+]([O-])C[C@H](N)C(=O)O; test: purified protein; type: biochemical, Clostridium sporogenes; conditions: pH 8.0, 100 mM potassium phosphate, 0.1 mM PLP, 1 mM DTT, 1 mM EDTA, 30 °C
# purified protein [5] = substrate: CC(=O)OCC[C@H](N)C(=O)O; test: purified protein; type: biochemical, Clostridium sporogenes; conditions: pH 8.0, 100 mM potassium phosphate, 0.1 mM PLP, 1 mM DTT, 1 mM EDTA, 30 °C
# purified protein [6] = substrate: CC(=O)OC[C@H](N)C(=O)O; test: purified protein; type: biochemical, Clostridium sporogenes; conditions: pH 8.0, 100 mM potassium phosphate, 0.1 mM PLP, 1 mM DTT, 1 mM EDTA, 30 °C
# purified protein [7] = substrate: CCSC[C@H](N)C(=O)O; test: purified protein; type: biochemical, Clostridium sporogenes; conditions: pH 8.0, 100 mM potassium phosphate, 0.1 mM PLP, 1 mM DTT, 1 mM EDTA, 30 °C
# purified protein [8] = substrate: CC[S+]([O-])CC[C@H](N)C(=O)O; test: purified protein; type: biochemical, Clostridium sporogenes; conditions: pH 8.0, 100 mM potassium phosphate, 0.1 mM PLP, 1 mM DTT, 1 mM EDTA, 30 °C
# purified protein [9] = substrate: CC[S+]([O-])C[C@H](N)C(=O)O; test: purified protein; type: biochemical, Clostridium sporogenes; conditions: pH 8.0, 100 mM potassium phosphate, 0.1 mM PLP, 1 mM DTT, 1 mM EDTA, 30 °C
# purified protein [10] = substrate: CSCC[C@H](N)C(=O)O; test: purified protein; type: biochemical, Clostridium sporogenes; conditions: pH 8.0, 100 mM potassium phosphate, 0.1 mM PLP, 1 mM DTT, 1 mM EDTA, 30 °C
# purified protein [11] = substrate: C[S+]([O-])CC[C@H](N)C(=O)O; test: purified protein; type: biochemical, Clostridium sporogenes; conditions: pH 8.0, 100 mM potassium phosphate, 0.1 mM PLP, 1 mM DTT, 1 mM EDTA, 30 °C
molecule,measurement,setting,value
Cc1ncc(COP(=O)(O)O)c(C=O)c1O [PLP],"absorption spectrum of holoenzyme, lognormal deconvolution of internal aldimine",C. sporogenes MGL [1],The ionic form of the internal aldimine and tautomeric equilibrium are almost the same
CC[C@H](N)C(=O)O [L-Abu],Ki,C. sporogenes MGL [2],2 mM
CCSCC[C@H](N)C(=O)O [S-Et-L-Hcy],Km,C. sporogenes MGL [3],240 µM
C[C@H](N)C(=O)O [L-Ala],Ki,C. sporogenes MGL [2],1.5 mM
CCCC[C@H](N)C(=O)O [L-Nle],Ki,C. sporogenes MGL [2],0.37 mM
CCC[C@H](N)C(=O)O [L-Nva],Ki,C. sporogenes MGL [2],1.9 mM
B1,Km,purified protein [4],1430 µM
same,kcat,purified protein [4],11.4 s⁻¹
same,kcat/Km,purified protein [4],7990 M⁻¹ s⁻¹
same,Km,purified protein [5],3180 µM
same,kcat,purified protein [5],37.3 s⁻¹
same,kcat/Km,purified protein [5],11700 M⁻¹ s⁻¹
same,Km,purified protein [6],8010 µM
same,Km,purified protein [7],430 µM
same,kcat,purified protein [7],6.53 s⁻¹
same,kcat/Km,purified protein [7],15200 M⁻¹ s⁻¹
same,Km,purified protein [8],600 µM
same,kcat,purified protein [8],0.48 s⁻¹
same,kcat/Km,purified protein [8],800 M⁻¹ s⁻¹
same,Km,purified protein [9],330 µM
same,kcat,purified protein [9],1.39 s⁻¹
same,kcat/Km,purified protein [9],4210 M⁻¹ s⁻¹
same,Km,purified protein [10],600 µM
same,kcat,purified protein [10],21.6 s⁻¹
same,kcat/Km,purified protein [10],36000 M⁻¹ s⁻¹
same,Km,purified protein [11],11390 µM
same,kcat,purified protein [11],21.7 s⁻¹
same,kcat/Km,purified protein [11],1900 M⁻¹ s⁻¹
